Read-outs that look alike come from different tables or passages of the source.
Experiments:
[1] = target: T1, human FcγRIIa type R (R131) extracellular domain with C-terminal His tag (human, UniProt P12318 34-217); experiment: SPR (Biacore), antibody captured, FcγR analyte
T1 construct: extracellular domain; also called FcγRIIaR; not shown: His tag at the C terminus
T1 sequence (looked up): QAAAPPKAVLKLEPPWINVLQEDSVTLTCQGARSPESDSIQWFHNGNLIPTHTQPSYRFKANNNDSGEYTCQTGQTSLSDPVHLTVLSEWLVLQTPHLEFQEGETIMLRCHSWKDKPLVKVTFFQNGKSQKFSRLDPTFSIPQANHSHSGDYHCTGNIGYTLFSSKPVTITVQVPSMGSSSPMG

[2] = target: T1, human FcγRIIa type R (R131) …; experiment: SPR (Biacore), antibody captured, FcγR analyte; remark: listed apart in the source

B1: IL6R-BP471/IL6R-L (antibody, human IgG1, kappa)
heavy: QVQLQESGPGLVKPSETLSLTCAVSGHSISHDHAWSWVRQPPGEGLEWIGFISYSGITNYNPSLQGRVTISRDNSKNTLYLQMNSLRAEDTAVYYCARSLARTTAMDYWGEGTLVTVSSASTKGPSVFPLAPSSKSTSGGTAALGCLVKDYFPEPVTVSWNSGALTSGVHTFPAVLQSSGLYSLSSVVTVPSSSLGTQTYICNVNHKPSNTKVDKKVEPKSCDKTHTCPPCPAPDLLGDDSVFLFPPKPKDTLMISRTPEVTCVVVDVSDEDGEVKFNWYVDGVEVHNAKTKPREEQDNSTYRVVSVLTVLHQDWLNGKEYKCKVSNKALPRSIEKTISKAKGQPREPQVYTLPPSRDELTKNQVSLTCLVKGFYPSDIAVEWESNGQPENNYKTTPPVLDSDGSFFLYSKLTVDKSRWQQGNVFSCSVMHEALHNHYTQESLSLSP
light: not shown
notes: P331S introduced into IL6R-BP230; copies: 2 + 2
Kd [1]: 0.8 µM

B2: IL6R-BP474/IL6R-L (antibody, human IgG1, kappa)
heavy: QVQLQESGPGLVKPSETLSLTCAVSGHSISHDHAWSWVRQPPGEGLEWIGFISYSGITNYNPSLQGRVTISRDNSKNTLYLQMNSLRAEDTAVYYCARSLARTTAMDYWGEGTLVTVSSASTKGPSVFPLAPSSKSTSGGTAALGCLVKDYFPEPVTVSWNSGALTSGVHTFPAVLQSSGLYSLSSVVTVPSSSLGTQTYICNVNHKPSNTKVDKKVEPKSCDKTHTCPPCPAPDLLGDDSVFLFPPKPKDTLMISRTPEVTCVVVDVSDEDGEVKFNWYVDGVEVHNAKTKPREEQDNSTYRVVSVLTVLHQDWLNGKEYKCKVSNKALPSSIEKTISKAKGQPREPQVYTLPPSRDELTKNQVSLTCLVKGFYPSDIAVEWESNGQPENNYKTTPPVLDSDGSFFLYSKLTVDKSRWQQGNVFSCSVMHEALHNHYTQESLSLSP
light: not shown
notes: A330S and P331S introduced into IL6R-BP230; copies: 2 + 2
Kd [1]: 3 µM

B3: IL6R-BP475/IL6R-L (antibody, human IgG1, kappa)
heavy: QVQLQESGPGLVKPSETLSLTCAVSGHSISHDHAWSWVRQPPGEGLEWIGFISYSGITNYNPSLQGRVTISRDNSKNTLYLQMNSLRAEDTAVYYCARSLARTTAMDYWGEGTLVTVSSASTKGPSVFPLAPSSKSTSGGTAALGCLVKDYFPEPVTVSWNSGALTSGVHTFPAVLQSSGLYSLSSVVTVPSSSLGTQTYICNVNHKPSNTKVDKKVEPKSCDKTHTCPPCPAPDLLGDDSVFLFPPKPKDTLMISRTPEVTCVVVDVSDEDGEVKFNWYVDGVEVHNAKTKPREEQDNSTYRVVSVLTVLHQDWLNGKEYKCKVSNKGLPSPIEKTISKAKGQPREPQVYTLPPSRDELTKNQVSLTCLVKGFYPSDIAVEWESNGQPENNYKTTPPVLDSDGSFFLYSKLTVDKSRWQQGNVFSCSVMHEALHNHYTQESLSLSP
light: not shown
notes: A327G and A330S introduced into IL6R-BP230; copies: 2 + 2
Kd [1]: 1 µM

B4: IL6R-BP514/IL6R-L (antibody, human IgG1, kappa)
heavy: QVQLQESGPGLVKPSETLSLTCAVSGHSISHDHAWSWVRQPPGEGLEWIGFISYSGITNYNPSLQGRVTISRDNSKNTLYLQMNSLRAEDTAVYYCARSLARTTAMDYWGEGTLVTVSSASTKGPSVFPLAPSSKSTSGGTAALGCLVKDYFPEPVTVSWNSGALTSGVHTFPAVLQSSGLYSLSSVVTVPSSSLGTQTYICNVNHKPSNTKVDKKVEPKSCDKTHTCPPCPAPDLLGDDSVFLFPPKPKDTLMISRTPEVTCVVVDVSEEDGFVKFNWYVDGVEVHNAKTKPREEQYNSTYRVVSVLTVLHQDWLNGKEYKCKVSNKALPAPIEKTISKAKGQPREPQVYTLPPSRDELTKNQVSLTCLVKGFYPSDIAVEWESNGQPENNYKTTPPVLDSDGSFFLYSKLTVDKSRWQQGNVFSCSVMHEALHNHYTQESLSLSP
light: not shown
notes: E272F introduced into IL6R-BP267; copies: 2 + 2
Kd [2]: 3 µM

B5: IL6R-BP517/IL6R-L (antibody, human IgG1, kappa)
heavy: QVQLQESGPGLVKPSETLSLTCAVSGHSISHDHAWSWVRQPPGEGLEWIGFISYSGITNYNPSLQGRVTISRDNSKNTLYLQMNSLRAEDTAVYYCARSLARTTAMDYWGEGTLVTVSSASTKGPSVFPLAPSSKSTSGGTAALGCLVKDYFPEPVTVSWNSGALTSGVHTFPAVLQSSGLYSLSSVVTVPSSSLGTQTYICNVNHKPSNTKVDKKVEPKSCDKTHTCPPCPAPDLLGDDSVFLFPPKPKDTLMISRTPEVTCVVVDVSEEDGIVKFNWYVDGVEVHNAKTKPREEQYNSTYRVVSVLTVLHQDWLNGKEYKCKVSNKALPAPIEKTISKAKGQPREPQVYTLPPSRDELTKNQVSLTCLVKGFYPSDIAVEWESNGQPENNYKTTPPVLDSDGSFFLYSKLTVDKSRWQQGNVFSCSVMHEALHNHYTQESLSLSP
light: not shown
notes: E272I introduced into IL6R-BP267; copies: 2 + 2
Kd [2]: 2.1 µM

B6: IL6R-BP520/IL6R-L (antibody, human IgG1, kappa)
heavy: QVQLQESGPGLVKPSETLSLTCAVSGHSISHDHAWSWVRQPPGEGLEWIGFISYSGITNYNPSLQGRVTISRDNSKNTLYLQMNSLRAEDTAVYYCARSLARTTAMDYWGEGTLVTVSSASTKGPSVFPLAPSSKSTSGGTAALGCLVKDYFPEPVTVSWNSGALTSGVHTFPAVLQSSGLYSLSSVVTVPSSSLGTQTYICNVNHKPSNTKVDKKVEPKSCDKTHTCPPCPAPDLLGDDSVFLFPPKPKDTLMISRTPEVTCVVVDVSEEDGMVKFNWYVDGVEVHNAKTKPREEQYNSTYRVVSVLTVLHQDWLNGKEYKCKVSNKALPAPIEKTISKAKGQPREPQVYTLPPSRDELTKNQVSLTCLVKGFYPSDIAVEWESNGQPENNYKTTPPVLDSDGSFFLYSKLTVDKSRWQQGNVFSCSVMHEALHNHYTQESLSLSP
light: not shown
notes: E272M introduced into IL6R-BP267; copies: 2 + 2
Kd [2]: 3 µM

Reference: patent US20220389118A1 (Chugai, published 2022)
